According to paper PMC9709291 (Frontiers in Immunology, 2022):

Target: TcdA^1073-1464 (fragment of the delivery and receptor-binding domain of TcdA, residues 1073-1464) (Clostridioides difficile VPI10463, UniProt P16154)
Experiment: pull-down
Conditions: both partners purified

Sequence of TcdA^1073-1464 (fragment of the delivery and receptor-binding domain of TcdA, residues 1073-1464) (P16154 1073-1464): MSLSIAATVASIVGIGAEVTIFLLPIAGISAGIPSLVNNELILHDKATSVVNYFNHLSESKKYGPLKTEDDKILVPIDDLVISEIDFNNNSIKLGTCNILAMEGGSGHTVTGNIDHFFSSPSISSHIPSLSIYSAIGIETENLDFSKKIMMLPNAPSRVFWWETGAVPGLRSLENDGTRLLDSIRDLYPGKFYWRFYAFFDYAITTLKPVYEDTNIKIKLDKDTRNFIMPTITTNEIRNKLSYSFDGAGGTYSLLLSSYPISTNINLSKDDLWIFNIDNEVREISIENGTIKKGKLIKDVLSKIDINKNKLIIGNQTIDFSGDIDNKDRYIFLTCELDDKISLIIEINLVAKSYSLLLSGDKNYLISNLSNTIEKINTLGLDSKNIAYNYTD

B1: VHH AA6 (VHH)
VHH: QVQLVESGGGLVQPGGSLRLSCAASGFTFSDYVMTWVRQAPGKGPEWIATINTDGSTMRDDSTKGRFTISRDNAKNTLYLQMTSLKPEDTALYYCARGRVISASAIRGAVRGPGTQVTVSS
- binding result: binds
